Data taken from patent US20150368357A1.

What was measured:
[1] = molecular target: HER2 (Human Epidermal Growth Factor Receptor 2) expressed on SK-BR-3 cells (human) (UniProt P04626); assay: flow cytometry, SK-BR-3 cells; mAb 0.2 ng/ml as headed
[2] = molecular target: HER2 (Human Epidermal Growth Factor Receptor 2) expressed on SK-BR-3 cells (human) (UniProt P04626); assay: flow cytometry, SK-BR-3 cells; mAb 0.4 ng/ml as headed
[3] = molecular target: HER2 (Human Epidermal Growth Factor Receptor 2) expressed on SK-BR-3 cells (human) (UniProt P04626); assay: flow cytometry, SK-BR-3 cells; mAb 50 ng/ml as headed

MFI [1]: 0 MFI
MFI [2]: 0 MFI
MFI [3]: 16 MFI
Substance: Anti-idiotypic FVIII (a chimeric anti-Factor VIII antibody produced by rat hybridoma YB2/0)
